15 sequences from the DeepSol protein solubility set can be followed below.

A short description of this data set: soluble on expression in E. coli; label from the status in PepcDB or PDB records.
Take “MAGDPMLLTGTLKREAGNKMGQKPKIAIFGGGTGLSVLLRGLKHKPVDITAIVTVADDGGSSGRLRNELKIPPPGDIRNVLAALSDVEPLVEDLFQHRFNKGNDLTGHSLGNLILAAMTNITGDFFHAVTEMSKVLNVRGKVLPAANASVVLHAEMEDGRVVSGESTIPEYGQRIKRVFLTPEQIDPLPETIDVIREADLIIIGPGSLYTSILPNLLVPKIGEEVIKAPAKKVYICNVMTQPGETLHYTAADHVKALNQHMGCGFIDTILVNSEDIPDEIKRKYEMESARPVDFDIEELKAMGLEVIRDQIVTYKNDVIRHDTHKVASLLVDLLKELEHHHHHH”: the “soluble on expression in E. coli” value is on record as “soluble”.
For the sequence “MAGDPMMKKDKDTNDQKSESHMKHNDESKVPEDMTSTNEGEFKVGDKVTITAGHMPGMKGAEATVKGAYKTYAYVVSYKPTNGNEKVNNHKWVVNEEIKDAPKDGFSKDDTVKLEANHMSGMKGATANIDNVKKTTVYVVDYKSKDNGKIIKNHKWMTGNELKARLEHHHHHH”, the “soluble on expression in E. coli” value is “soluble”.
Then “MAGDPMNSLIDRRLNGRNKSAVNRERFLRRYKDQIRKAVQDLIRERSISDMDQGGEINLPARDISEPSFRHGEGGDREIVHPGNREFAKGDTFDRPQGGDGGSGSQPGEGESVDQFTFSLSRAEFLNLFFEDLELPHLARTQLGDVKQQRWHRAGYTTTGSPSMLSVNRTLKASLSRRVALGVGARAALDAAEQELEAARDAGAPQAELDRLLAEVEKCAARVARVPFLDDLDLRYRNRVAVAVPMARAVMFCLMDVSGSMDEMKKDLAKRFFTLLYMFLSRKYEHVDVIFIRHTDNAEEVDEQTFFYDPKSGGTIVLSALELMHEIVQKRYSPATWNIYAAQASDGDSFGADAGKSARFLAENLLPATRYFAYIEVPDSQEARKSSLWAEYEQESASHFVMRRICERGEIFPVFHDLFKKETVLEHHHHHH”, with “soluble”; and “MAGDPMTALKYLQAYPVALQQQVRQLIDEQRLGDYLSQRYPGRHAVQSDKALYSYALELKQEYLRNAPAIDKVLFDNRLDLTHRALGLHTTVSRVQGGKLKAKKEIRIASLFKEAAPEFLRMIVVHELAHFKESDHNKAFYKLCEHMLPGYHQLEFDLRVYLTWRDLQGKAGAPDLEHHHHHH”, with “soluble”.
“MAGDRKRGFIRPDEDYALIEPQRWGLPDYGDSKEKKAKQTAFNYDPSWVPNFDEPEEEQALELTEEQIELIKQGAYQEGLYQGQEAGFKQGYDKGKEEGLQAGHAEGLELGKAEGVSAGQEFIQQQVEVFMNLANQFAQPLELMNAQVEKQLVDMVLCLVKEVVHVEVQTNPQIILDTVKQSVEALPISGHPITLHLNPEDVAIIRSAYGEEDLDCRNWTLVSEPSLNRGDVQIEAGESSINYRMEERIKSVLHSFCGANRHQEGE”: the “soluble on expression in E. coli” value is listed as “not soluble”.
Then “MAGGPSALTLIARTSATGAQPLSLRARFPRTRPPMKKIPLAAADPDRLDTWVKYREGLCGECNATCCTLPVEVRIDDLIRMRLVDEFEREEPAKRIAKRLEKDGVIEHFNHKREIFTLTRMANGDCLYLDRKTRLCTIYARRPDTCRNHPRIGPRPGYCAYRPRLEHHHHHH”, with “not soluble”.
For the sequence “MAGHSKWANTRHRKAAQDAKRGKIFTKIIRELVTAAKLGGGDPDANPRLRAAVDKALSNNMTRDTLNRAIARGVGGDDDANMETIIYEGYGPGGTAIMIECLSDNRNRTVAEVRHAFSKCGGNLGTDGSVAYLFSKKGVISFEKGDEDTIMEAALEAGAEDVVTYDDGAIDVYTAWEEMGKVRDALEAAGLKADSAEVSMIPSTKADMDAETAPKLMRLIDMLEDCDDVQEVYHNGEISDEVAATL”, the “soluble on expression in E. coli” value is “soluble”.
With “MAGKWNVLSLLAFRPCQPALPHDNHGGGMDAIYLKLDGIEGESRIKGFENQIKLIAYNHNPTKRESGEARGTYIGGLTLTKPVDLATPGLYEHYCNGKTVKEGVLTLCRRDKGAMLPFIIYTLTNVRISRMSNHGDAEGSATETVDLVYSHIRWDIPALASKSKTRRPLHRQALWR” the entry was “not soluble”; with “MAGPSDRTFSDQTEEIMQATYRALREHGYADLTIQRIADEYGKSTAAVHYYYDTKDDLLAAFLDYLLERFVDSIHDVETTDPEARLNLLLDELLVKPQENPDLSVALLEMRSQAPYKEAFSDRFRQNDEYVRYMLKAVINHGIDEGVFTDVDAEHVTRSLLTIIDGARTRAVMLDDTEELETARQTASEYADAMLQ”, “soluble”; with “MAGPVFPWRDGNQFELLIDGPAFFPRMLLAIMRAEFQVDLELYLVEAGACAEAVVDALEQAARRGVRVRCLFDDYGSLAFNSALRQRLLDAGVYLRWYNRLRWKRGLRNLYRDHRKLLLVDERWAVVGGTGVTDEFWTPGEATSEWHEVMVQMQGPVVSDWQLLFDRQWQANNRRTAWRPAEGFGLPRLPKVPAQGQGMGRVAYADARQHQDILHALVRALNSGQKRVWLATPYFLPTWSVRRSLRRAASKGLDVRLLLTGPRTDHPSVRYAGHRYYPRLLRAGVRIFEYQPCFLHLKMAVVDDWVSVGSCNFDHWNLRFNLEANIEALDPPLTAAVVASFERDFAQSEEVDLAHWHARPWWRRVKQRIWGWLDRLVVNFLDRRD”, “not soluble”.
“MAGSTLTVKDLHVSIDGKEILKGVNLEVKGGEIHAIMGPNGTGKSTLSSAIMGHPKYEVTEGSIIIDGEDVLEMEVDERAQAGLFLAMQYPSEISGVTNADFLRSAINARREEGDEISLMKFIRKLDKNMEFLEMDPEMAQRYLNEGFSGGEKKRNEILQLMMIEPKIAILDEIDSGLDIDALKVVSKGINEMRGEEFGCLMITHYQRLLNYITPDFVHVMMNGRIVKSGGPELAQRLEAEGYDWIKKELGIEDETTEQEA”: the “soluble on expression in E. coli” value is given as “not soluble”.
Then “MAGYVGDVAIAYDRDLGHVLFEQYASDIARRTAGKPVRDVLEVASGTGIVTRQLRNVLPGDAQLTAIDISDSMMEVARTKFLPHEQVTFQVANAVALPFDDRAFDTVVCQFGVMFFDKDKAFQETHRVLRQGGRYLFSVWDSRDYNPYASLTFEVMKQFFPSDPPRFLESTVSSFEIDPVKERLIRAGFEQISISVQRRIYDIPDIRAFARGLIFSPIINEIRERGEVDPDDIVEALVKIFIGEYGSNPTRFPMQAILFETEKPLEHHHHHH”, with “not soluble”.
With “MAHHHHHHLRCAPSKLFRATPLLRVWAAEEDDASAPRTTFRNVRPGRLLRLWRQMRHRAWMLYAWDEEWVSPMQEGYLHQQRLEQVCFAPLSAYGVVPGSYCDPLLYNTKRTSPFRWHVANVQGDVVGHWYMDADELFRIEDWQPREPDDPLEMFPRPPPMLLRWDESVDEHGNRAFRYRYHYDMMGPTGKWEAYPRCPFSHLYHGGPDQHGRAEGYGFQQGHLLRCDEAEEEVLRRIMEGEDREWEMVKRTEAVQEPWSYPGKIRPRDFEGAVEHAKARYRERVRHGKETDPSEDPEYDLVQASEYVEPRDGRRAEWRHLWASGRKPGESLPFHVAFNDGLCFEGNEGGPPAHPAAHYEATPKGAPYGRYEDADAAAARAAEAAHNAACEQSLSEAMARHRRLFGDTSGAPSGPKAPLPTGCRPMRCAPGPPLPSGRSRSSGARAVGSGPVCGAGARDGESEGEGRGGEAPLGYGARACSWRRREGWV” the entry was “soluble”; with “MAHHHHHHMAADKDTPDSLGHSQTMAAEGTKGVATEQQPQASPSSSSAAAAATSMSVAETTATDATTAAASRKAPAPHDKAVAVNEGSTARVAAASSSSSTASSSASVDEQRRRRLALYGSRAMAAGGKKGPALAADPHHPSTPHGSAHGRHALTAFGARRGGELAFYIQQGGDLTSQGRYLVIGDGLMAPFMALCLRVHGLECDLAHHPSQNDLDRGTVVLTPSVTQLMGDVLNVSVPSGSVVGRVLTFDHVGNDMCDVDLNEFREKGESPTFFCCDRLKVESALMSLCRIGAHSCMVLPKPQIDKGGLEPLESGGVRVRFTSGLQQDYLGVICTARNQELVPELTITNEELQARAENAEKYRDTFSKSVRWMELCVPPLPELGKFEKRFTPGSQEIVEILTPRDAKMTVRPTMMATKLFYNVTLTIPDGTADPRLKSTSTKLFWDDVVMHWTSGVPGYISHTMFRPMFTHLQQNFTKSSALVYRTPLFLMPHWSEGGGRVIKVAHAAHGSCFDAVDVSDAQGFTDCFTLARTIAGGEDVAAFLKERRLQVMEEMDHHSRLTYYGLKERGQMAYMMSRFNMKIMRKYKKSWRSILQNYVTLMPKSIPR”, “soluble”.
Then “MAHHHHHHMAASYLVLQRYTDLINSGDLDAAFNYLSEDIIYVTWLGVIEGKDNVVTFLRDNMRFLHFAKHFNRWRQVQHCLDADLSRHCDDSDVGGSNLFDRDGYDRQGYASFERDGMIANIVKLSMQKTRVRETVVIRDNKVVLVTLMEQL”, with “not soluble”.
